The target in data set [1] is CvkR (Alr3614) (Anabaena sp. PCC 7120) (UniProt A0ACD6B984). Nature of the data set: DNase I footprinting. The following applies: EMSA: 10 mM Tris-HCl pH 8.0, 25 mM MgCl2, 50 mM NaCl, 1 mM DTT, 1 mM EDTA, 50 ug/mL poly(dI-dC), 0.01% NP-40, 10% glycerol, 2 nM probe, 25 C 30 min ….
The target in data set [2] is CvkR (Alr3614), MerR-type transcriptional regulator of the Anabaena sp. PCC 7120 CAST system, 150-residue form CvkR-S (Anabaena (Nostoc) sp. PCC 7120). Kind of data set: SEC; analytical gel filtration, Superdex 75 10/300 GL, 10 mM Tris-HCl pH 8.8, 100 mM NaCl, 2 mM beta-mercaptoethanol; ~500 uL untagged protein at ~0.6 mg/mL; calibrated with LMW standards; self-association (dimer). A general note: In gel filtration, larger molecules generally elute earlier.

The target in data set [3] is CvkR R42E (Anabaena (Nostoc) sp. PCC 7120). The data set is described as above.
The target in data set [4] is CvkRmut (R19A-R20A-Q23A-K40A-R42A-N66A) (Anabaena (Nostoc) sp. PCC 7120). Described as above.

Sequence of CvkR (Alr3614) (Anabaena sp. PCC 7120) (A0ACD6B984 entry or part of it): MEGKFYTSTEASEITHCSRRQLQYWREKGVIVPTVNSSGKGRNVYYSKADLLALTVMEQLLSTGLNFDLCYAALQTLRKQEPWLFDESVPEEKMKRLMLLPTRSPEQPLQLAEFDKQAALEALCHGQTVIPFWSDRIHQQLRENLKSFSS

On to “AACTCCTTTCTCTCGCCAATACTGCAACTGGCGGCGAGAGCAATGAGTAATTTCTGATGCTTCTGTGCTTGTGTAGAACTTTCCTTCCATAAGAAACATCCTATAGAAGCATCTTCTAAAACACATTAGTGCTTTGTATAACATTATGTGTTTTGTATGGTATTTTATTTTTATGAGCCAAAAAACTATTCAATGTCGCTTAATTGCCAGTGAATCTACCCGCCAAAAACTCTGGAAGTTAATGGCAGAATCGAACACACCTCTAATTAACGAACTGCTTCAGCAGC (double strand) [Pcas12k footprint probe]”, for which the binding result in data set [1] is reported as “binds”. For “CvkR (Alr3614), MerR-type transcriptional regulator of the Anabaena sp. PCC 7120 CAST system, 150-residue form CvkR-S (natural protein)”, the stoichiometry N (as a rule, the number of molecules, sites or subunits per partner or assembly) in data set [2] is 2. In turn, CvkR R42E (natural protein) gave a stoichiometry N in data set [3] of 2.

In turn, “CvkRmut (R19A-R20A-Q23A-K40A-R42A-N66A) (natural protein)” showed a stoichiometry N in data set [4] of 2.
